Experimental data: the domain aggregation screens of Martell et al. (2025)

Test: soluble fraction after stress (log2 fold change); higher = more stays soluble; pooled small domains, quantitative proteomics
Details: stress: pH 4
Outline: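 Values are log2 fold changes, and higher ones mean more of the domain stayed soluble. Each fold change reflects the soluble amount of a domain after acid stress and is taken as a measure of aggregation propensity. The stress was pH 4, applied to pooled custom libraries of small protein domains analysed by high-throughput quantitative proteomics.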

Sequence | soluble fraction (log2)
HMTSKIIIGDSYSKINKLLGEPENMKKRKFLDNEYLMVLYSINKKNYRLYFKDNILFELEDI | -0.582
HMTSLQDLLEELRVIRETLTGSQVLSDMQLFSQLRNLGDIKAALTRMQDNPAAARMVGEVDKLLETMFAS | -1.56
HMTSLSYINDLVTGATAQGLYRIVVPNQFMDDNMANVLRRTYGYQVQSRTSLMGTFDDYIISWAPPM | -1.59
HMTSMTHLGRHPDSEISLDDISVSRRHAEIERQGHEYVLRDSGSLNGTYVNQQRVDSVVLQQGDEIL | -0.277
HMTSPLQIHPNPATKHIELGLESPEVVLIKDINGKTVYQELVAPNQYIDIEHLKNGIYFIESKNKFGKLIK | 0.29
HMTSPNPLIRSTTPGLETNKKGGIIVDENEMSTRENVFAGGDAVTGAATVILAMGAGKKAAAAIDAKLQN | 0.22
HMTSPQGIERFLASGVIEGVGKAMAARIVAVFGGQTLEIIEKQPHRLREVRGIGVKTAEKIHASYQEKA | -0.203
HMTSPVEDLLDKAIQLYREENFEEAIAKWEEVLALDPSKLEAKFNIEIAQDRIKEKQIQEDLKSS | -0.935
HMTSQVTVHVVGAVEKPGVVTLDAPSRVQDALEAAGGALPEAELSGVNLARELFDGEQIVVPAQGEDV | 0.0598
HMTSSVIIPKLIGKTEEEAKVALAGLNVQVLYETHGDQANGIVIKQSFEEGTKVIKGVSIVITVNKVS | -0.256
HMTSTEQEILIEHMVDRLPALRKKYGISQTELGEKIGLSRQTISAIERKTTPLTWTTMLAILMFFT | -0.425
HMTSTSVKYVNSSSGLNVRKGPSTSYDKVTTLVNGTKVTVISTNNGWSKITSGSITGYVSSQYLSSSS | -0.284
HMTSVAYVIDRINKIQNVYSELEALGLKDEFEKILSNIEDLSKKDIREIKTLLKTKGVIKNLDDLNVKL | -1.24
HMTSVQDLLRNGDRVGYQNGSTVKYWLEEMGFHKKDLLGYVTVEEYAEALQRGSGNGGVSAIVD | -1.7
HMTTARERVYKTLQQWIVNGTLLPEERLNDVELARYFSVSRTPVREALQMLAEQKLVKMVPSSGTFVA | -0.0644
HMTTELDTTAITPIIQKVLKANPDVVAKYKAGQQQVIGFLMGQVMRELSTKPNPKELQSLIVAQLQQA | -0.0703
HMTTGEIIQRERTRLGLSQEKLAEQVGVSRQAVSKWELGDAVPDTDKLVPLARTLGISVDTLLD | 0.0499
HMTTGGAEELGRTERKIVEQVGRGLSNREIAQVLGLSEGTVRNYLSTILGKLGLRDRTQLAIWSVQTGFAA | -0.371
HMTTHERHEIIELLRQVGDPMRPKEISEALGKPSGAIRFLLSKLTEEGAIKKTGYGQYTYIP | -0.0635
HMTTLTPIGKMKGEIDGDFEAFYLAVDKDGQVYLNRDPDYSENRYEKSRGWELVTREQLAVYEKELHFIP | -0.25
HMTTMYKSDVKGINYDVKAKSWFLRITFNGNQIPIGHFKTEEDAINVKQQLIPYIESKDYTSILAVKAKYS | ≥ 0.43
HMTTPDIIVPDVKGMTVAEAQKALEEKGFKVKLEEMTQEGAVPGDVIRIDPVAGTKRKEGAKITLLIARG | -0.0525
HMTTQTGTVKWFNEGKGFGFIAPDDGGKDLFAHFKEIQGTGFKTLAENQRVEFEVTQGQKGPQASKI | -0.469
HMTTQTTKYVNTTAGLNVRTGPSTSYAKIVTLSYGQSVNVLSTSNGWSKINYNGSTGYVSSQYLQSTKPS | 0.0265
HMTTSNPMNVTSAEAAFDNGTDRLNAFISGRTTSEERSTYFPLFVRETKEDFLRAVGRFNEYIANHG | 0.0839
HMTTTAGTAVVQTGNSGKLNLREQAYSNAGILGRYSNGTIVTVLQKGSAWSYVEVQGQKGYMMSKFLRFT | -0.386

Sequence | soluble fraction (log2)
HMTTTFGWENLVGEKGIAATDLHPSGWVTVKDQRVFVVSEGTFIEEGKEVEIMNVDGNRIVVREFKN | -0.46
HMTTTPTSQMVTELRSRGWTLRALAQRLGVGHASINRWANGVTPDRDLVAALRALVASGEVP | -0.00752
HMTTTYEINDEMLKPLILEIFNKSKQRFGSTKIAPVLKREGYTASIAKVKTLMNELGIKPVNA | 0.206
HMTTTYTVPKVTGMTLEEAREDPDVVGRFTIVEGEKVTSDTVPVGQIVSQEPAAHRQVGEDGLTITVNIS | -0.2
HMTTVKDRVYEILKREIVLGKLKPGEPINIAVLSTKLNISSAPLREALNMLSRDGLVTLNPRKHAAVSE | -0.0431
HMTTVRLNATVPPELALQRLDRVARELFPEYSRNRLQQWIRSGELLVNGSPSGVRDKVPLGAELAVAANLE | -0.343
HMTTVSINTTGIITASTIRASSALYPPLYTTVQRDAGTFSAGAIIFNSTTSKLEFYDGTTWQSLPG | 0.285
HMTTVTVGSKVRVKAGATFSDGAKPFAEVYNTVYDVQLLSHNGKEARIGIGDQWTGWIYISDLYLANQPAP | -0.101
HMTVEMYIGKTANVLETVTENNGRIAIFGEEWQAKSLNGETIEKGAQAKIVKNDSIIMYVVPI | -0.367
HMTVGENTYELIKKDIIFGVLPPLKKLKLQELKKIYNASVSTLREILSRLTGDGFVFSEEQKGFYVSPV | -0.33
HMTVKEVGYDTFLTMLDKKEIKQVQVEDNQIIFSDNADPVNYYKTGVFNDPDLVNRLQDAGVEFG | -0.37
HMTVKEYNRAVDEYSDAVWRFIRGNLRDEDRANDIVQDSFEKLWMHVTEIDYSVAKSWLFSTAYNNMIDI | -0.899
HMTVKKLTINEDNSGRRIDNYLLSIFNSLPRSKIYNIIRKGEVRVNSSRIKPNYRLEQGDLVRIPPNLEFT | 0.0853
HMTVKRNLVQEILRLKFRHPENFMPNRAFYQEVGINQMRWWDIFYGRKNINQEEYIALSKYF | -0.352
HMTVLPTEQDAKALVGLGEEEAAKIVEGNGWTYRIGSRDGEQFMLTEDFVTSRLTLGIEKAIVMTATI | -2.11
HMTVLSKEEFVAIEQRLLQLLGTAPVDNKILLQQLSGIKKEKAWKVLSFLQAENKIGMDATGRVYL | -0.697
HMTVPDVKGMGARDAVFLLETLGFKVRINGIGQVYEQSIDPGKSYSKGEFISLRL | -0.81
HMTVPNVVGQRILAAQDILKNLGLKVLVDTNLPNSQWGLRNVKSTNPGAGAVVRVGDTVTLIAR | 0.124
HMTVPTEVALELMHATALEDNEQRILYIASFKEKHREHLHATIEVDGQEVTLARYADLVATGAYL | -2.15
HMTVSADIIQKIIKTSTTDENIITIDSISNSISKLALSKITAEDIIEILEASSLVLRNSNGSWTVL | -0.716
HMTVSKLKVINYTIRNGDSLWTISRKFNVTVDKVKEWNGLSDRTLLQPGQKLTLYVDPTIQISH | -0.406
HMTVSLLQTRQRLQALADLGHYKGDLGAAWGPDAIEALKKAQATLGVTVDGKWGPQTEDAIQVALKVQ | -0.0459
HMTVTISPGYEGRLLRSYLKNTLSLSTSALARLKTREDGITVNGVRVTVRYVLHAGDLLQLAVD | 0.22
HMTVVHRQVHLQPDQGAFRAALYSHKAVLSEQTDDQGAINLEIRLPESDFLRLLNSSGLKLQDLVP | -0.512
HMTVVSVDDQASASSEAIRTKVAGDSAARMSVDAGGKITWGAGSASGDVTLYRSAANTLKTDDTLVAT | 0.109
HMTYADTRDLLIRRGMELLTEQGIAATSIERVLQSTGIPKGSFYHYFATKHDFTLAVMDAYHHY | -0.324

Sequence | soluble fraction (log2)
HMTYAQQIGARIAFLRRLKGLTLAELAERVNKHKSTISKYESGQIIIDIESLKEVADALGVDVAQIVE | 0.187
HMTYFDIAPELLTVYKEINDIPRDINQIVRKTGLSINEVSYKTMILQLEDKIVELPGQRFIRNS | -0.815
HMTYKHLTIDEMKRFLSTREDSQSALVQFARVENVVGNRKGKYAVIKKWFLKNYKEEYNAFLS | 0.0391
HMTYPGSIALVNPKHEAFVQHYVATSGSRGQAAKLAGVTTTTARNLLQDVEATARIRYLNAQQFQ | 0.22
HMTYTGTVTGVDEGGLRVRSSTSTENTSNVITKVYTGDTFDVLDTVYNGSAKWYKIGFTYNGTYTYGYVSA | -0.518
HMTYVSVSNYIGTNVDKAKGELESQGLVVLLEEQKTEDKSQDGMVLKQTIEGGTKVSSGSRITLIYGRYT | -0.117
HMVADEGELLAIAREVVAANPKVFEDWKAGKQSAAQWFVGQIMKRTRGRANPQLALKLVTQALEEHAR | -0.21
HMVAEKSKIEMAIDSINKLAKELADSGVAKKTISDIIKSVSGSANYNKITDFEVATDVYKELVALKNKEDT | -0.224
HMVAESGLPPAFRSTWRHIMQTRGAQLDVLAMRTGTDAASLQKQLHAMELGGWVRRMPGGWYVPLK | -0.1
HMVAFYATPKERGIYDDAETYREGDIVSIADGSRWIYVNPTATAGNDPADGSVYWERMSGAATGP | -0.127
HMVAGHLQEKKGYFYMVLTYRDHEGKRKSKWLPTGLTIKGNKKRAQDLLQDARKNFVPDIPT | ≥ 0.43
HMVAGHLQEKNGYFYIVLNYTNHEGKRKSKWITTGLTVKGNKKRAQDLLQEARKTFVPDIPT | 0.22
HMVAPKDIVMPSFVGKKYTDVVNTPNSSYTFEFKKDEKNSSDYAVGFIMDQKPKAGETVKSNATVTLIVSK | 0.0982
HMVAPNSEATTKLIIEKTKYANESPAILMGFKATATMLMAKHVVLPTSKYAYFNEGRALLEKAIK | 0.278
HMVAREAYTTQNLTDVFSISRQAVEKRAKREGWQSVPRKGRGGGKLWVVSSMPAETRDLLASLLLRK | ≥ 0.43
HMVDALYGQGARVMRDFSEGSGIVKLDNGETWTGRLSPAASGASLYVGDRVIVTRIDGAIAEVTPP | -0.446
HMVDDNFGLGEVTDQNYLTVLGRALDLIGWTDEQADSYSLKTFGVPHWDELGRSQAEKLVAHLIGLLKEQM | -0.157
HMVDIEQAEFLSRQFDLLLARLDDPTIEWQDIADIRSEYTGENEHRDTIRKGSKLFYEYLQAGWIKN | -0.809
HMVDISLSDRELEVLRLLAMGLSNADISRRLYLSEGTIRNYMSGIFSKLNVSDRTQAVVIALREGLVNL | -0.976
HMVDPAEASKRAREYLDALPADDLKDVIRQFSATLAEGSVVLGYFQRSGLKSKVVKTALEQFVASTILSK | -0.268
HMVDPAFLAWQQKPENTWFGTDRRKTALAIAIAEEIRNDPANSNLVGAAFYARVAEETEETLN | -1.23
HMVDPWLEQVHRASAAYATAHGSARIPTTHPDLGWKVVRVRQRHRKGLLSDEWVAKFEALPGWTWEPK | -0.471
HMVDQAFQTQLKNIQARTGKNLDELYAFIRASGLVKHGEIRDLAKRELSLGHGDANTLAKFYLESLAAAA | -0.103
HMVDQKLIQASAEHSGIRIDRFLSEQLPEHSRSYIQKLIKDGQVSIGGKAVKSNYKIAGTEEISLLIPDQ | -0.224
